One test concerns the target T1, muNav1.7α (murine, UniProt Q62205 1-1984).
T1 construct: HEK JmpIn cells; also called murine Nav1.7α
Nature of the test: binding FACS, HEK JmpIn. The method, then: Binding of the ISVDs to cell-expressed Nav1.7α was detected via murine anti-Flag (Sigma, catalog #F1804). Briefly, cells were resuspended in FACS buffer (PBS, 10% FBS, NaN₃) and transferred to a 96-well V-bottom plate at 1×10^5 cells/well. Purified FLAG3-tagged ISVD was diluted in FACS buffer and added to the cells for 30 minutes at 4° C. […] Prior to the read-out, the samples were resuspended in 1 μg/mL propidium iodide (Sigma, catalog #P4170) to exclude dead cells. Between each step, the cells were centrifuged for 5 minutes at 200 grams and washed with 100 μL/well FACS buffer.

The target in a further test is T2, rhNav1.7α + β1-β2-β3 (rhesus monkey).
T2 construct: also called rhNav1.7-beta1-beta2-beta3; rhNav1.7-β1-β2-β3
Nature of the test: binding FACS, CHO FlpIn. An outline of the steps: (§1)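 FLAG3-tagged ISVD, 30 min, 4° C, FACS buffer (PBS/10% FBS/NaN₃); 1×10^5 cells/well; detection murine anti-Flag; PI 1 μg/mL live gate; washes between steps.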

The next test has as its target T3, huNav1.7α + β1-β2-β3 (human, UniProt Q15858 1-1988; A5A6L6 19-218; O60939 30-215; Q2KI11 23-215).
T3 construct: also called huNav1.7-beta1-beta2-beta3; huNav1.7-β1-β2-β3
Briefly: binding FACS, CHO FlpIn. The procedure, abridged: as §1

A word on the EC50: it is the concentration needed to bring the measured effect to its halfway point.

B1: F010301875 (VHH)
VHH: EVQLVESGGGVVQPGGSLRLSCATTSRAFIRDVFTGWYRRVPGKERELVARIYNGGNTNYADSAKGRFTISRDNAKKMVYLQMNSLRPEDTALYYCLFSGTINTGREYRSGDYWGQGTLVTVSS
notes: also called F0103464B09(L11V, F62S, S68T, T79Y, R81Q, S82aN, N82bS, K83R, G88A, V89L)
Consider B1, for which the figures for the concentration for a half-maximal effect (EC50) in the test with muNav1.7α, with rhNav1.7α + β1-β2-β3 and with huNav1.7α + β1-β2-β3 were 14 nM, 52 nM and 6.4 nM, respectively. Also, the Bmax with huNav1.7α + β1-β2-β3 is 100%.

B2: F010302339 (VHH)
VHH: EVQLVESGGGVVQPGGSLRLSCAASHRAFIRDVFTGWYRRAPGKQRELVARIYEGGNTQYADSAKGRFTISRDNAKKTVYLQMNSLRPEDTALYYCLFSGTISTGREYRSGDYWGQGTLVTVSS
B2: the figures for the Bmax with muNav1.7α, in the test with rhNav1.7α + β1-β2-β3 and in the test with huNav1.7α + β1-β2-β3 were 61%, 100% and 100%, respectively. Also, the EC50 is 8.7 nM with muNav1.7α, 6.8 nM with rhNav1.7α + β1-β2-β3 and 4.3 nM with huNav1.7α + β1-β2-β3.

B3: F010302337 (VHH)
VHH: EVQLVESGGGVVQPGGSLRLSCAASHRQFIRDVFTGWYRRAPGKQRELVARIYEGGNTQYADSAKGRFTISRDNAKKTVYLQMNSLRPEDTALYYCLFSGTISTGREYRSGDYWGQGTLVTVSS
Take B3: the values for the Bmax with muNav1.7α, with rhNav1.7α + β1-β2-β3 and in the test with huNav1.7α + β1-β2-β3 were 74%, 100% and 100%, respectively. The figures for the EC50 with rhNav1.7α + β1-β2-β3 and in the test with huNav1.7α + β1-β2-β3 were 6.8 nM and 3.9 nM, respectively.

B4: F010302347 (VHH)
VHH: EVQLVESGGGVVQPGGSLRLSCAASHRAFIRDVFTGWYRQAPGKQRELVARIYEGGNTQYADSAKGRFTISRDNAKKTVYLQMNSLRPEDTALYYCLFSGTISTGREYRSGDYWGQGTLVTVSS
In the case of B4, the figures for the Bmax with muNav1.7α, with rhNav1.7α + β1-β2-β3 and with huNav1.7α + β1-β2-β3 were 48%, 100% and 100%, respectively. Also, the EC50 with muNav1.7α turned out to be 14 nM; with rhNav1.7α + β1-β2-β3, 9.6 nM; with huNav1.7α + β1-β2-β3, 4.6 nM.

B5: F010302355 (VHH)
VHH: EVQLVESGGGVVQPGGSLRLSCAASHRAFIRDVFTGWYRRAPGKQRELVARIYEGGNTQYADSVKGRFTISRDNAKKTVYLQMNSLRPEDTALYYCLFSGTISTGREYRSGDYWGQGTLVTVSS
For the molecule B5, the Bmax is 30% in the test with muNav1.7α, 97% with rhNav1.7α + β1-β2-β3 and 100% in the test with huNav1.7α + β1-β2-β3. Besides, the results for the EC50 in the test with muNav1.7α, with rhNav1.7α + β1-β2-β3 and with huNav1.7α + β1-β2-β3 were 21 nM, 6.8 nM and 3.5 nM, respectively.

B6: F010301934 (VHH)
VHH: EVQLVESGGGVVQPGGSLRLSCATTSRAFIRDVFTGWYRRVPGKERELVARIYNGGNTNYADFAKGRFSISRDNAKKTVTLRMSNLRPEDTGLYYCLFSGTINTGREYRSGDYWGQGTLVTVSS
notes: also called F0103464B09(L11V, M77T, K83R, V89L)
Regarding B6, the EC50 is 4.5 nM in the test with muNav1.7α, 21 nM with rhNav1.7α + β1-β2-β3 and 4.3 nM with huNav1.7α + β1-β2-β3. For the same molecule, the Bmax with huNav1.7α + β1-β2-β3 turned out to be 96%.

B7: F010301937 (VHH)
VHH: EVQLVESGGGVVQPGGSLRLSCATTSRAFIRDVFTGWYRRVPGKERELVARIYNGGNTNYADFAKGRFSISRDNAKKMVTLRMNNLRPEDTGLYYCLFSGTINTGREYRSGDYWGQGTLVTVSS
notes: also called F0103464B09(L11V, S82aN, K83R, V89L)
B7: the EC50 stood at 4.8 nM with muNav1.7α, 20 nM with rhNav1.7α + β1-β2-β3 and 4.3 nM with huNav1.7α + β1-β2-β3. Further, the Bmax in the test with huNav1.7α + β1-β2-β3 is 95%.

B8: F010301893 (VHH)
VHH: EVQLVESGGGVVQPGGSLRLSCATTSRAFIRDVFTGWYRRVPGKQRELVARIYNGGNTNYADFAKGRFTISRDNAKKMVYLQMNSLRPEDTALYYCLFSGTINTGREYRSGDYWGQGTLVTVSS
notes: also called F0103464B09(L11V, E44Q, S68T, T79Y, R81Q, S82aN, N82bS, K83R, G88A, V89L)
As for B8, the figures for the EC50 in the test with muNav1.7α, in the test with rhNav1.7α + β1-β2-β3 and in the test with huNav1.7α + β1-β2-β3 were 3.6 nM, 21 nM and 5.8 nM, respectively. For the same molecule, the Bmax with huNav1.7α + β1-β2-β3 was found to be 100%.

B9: F010301938 (VHH)
VHH: EVQLVESGGGVVQPGGSLRLSCATTSRAFIRDVFTGWYRRVPGKERELVARIYNGGNTNYADFAKGRFSISRDNAKKMVTLRMSSLRPEDTGLYYCLFSGTINTGREYRSGDYWGQGTLVTVSS
notes: also called F0103464B09(L11V, N82bS, K83R, V89L)
For B9, the EC50 is 4.7 nM with muNav1.7α, 20 nM with rhNav1.7α + β1-β2-β3 and 4.8 nM in the test with huNav1.7α + β1-β2-β3. Besides, the Bmax in the test with huNav1.7α + β1-β2-β3 was determined as 97%.

B10: F010301876 (VHH)
VHH: EVQLVESGGGVVQPGGSLRLSCATTSRAFIRDVFTGWYRRVPGKERELVARIYNGGNTNYADFVKGRFTISRDNAKKMVYLQMNSLRPEDTALYYCLFSGTINTGREYRSGDYWGQGTLVTVSS
notes: also called F0103464B09(L11V, A63V, S68T, T79Y, R81Q, S82aN, N82bS, K83R, G88A, V89L)
As for B10, the results for the EC50 in the test with muNav1.7α, with rhNav1.7α + β1-β2-β3 and with huNav1.7α + β1-β2-β3 were 23 nM, 110 nM and 6.3 nM, respectively. Further, the Bmax with huNav1.7α + β1-β2-β3 stood at 100%.

B11: F010301933 (VHH)
VHH: EVQLVESGGGVVQPGGSLRLSCATTSRAFIRDVFTGWYRRVPGKERELVARIYNGGNTNYADFAKGRFTISRDNAKKMVTLRMSNLRPEDTGLYYCLFSGTINTGREYRSGDYWGQGTLVTVSS
notes: also called F0103464B09(L11V, S68T, K83R, V89L)
On to B11, for which the EC50 with muNav1.7α is 5.3 nM; with rhNav1.7α + β1-β2-β3, 21 nM; in the test with huNav1.7α + β1-β2-β3 it was 4.4 nM. Besides, in the test with huNav1.7α + β1-β2-β3, the Bmax was 94%.

B12: F010301939 (VHH)
VHH: EVQLVESGGGVVQPGGSLRLSCATTSRAFIRDVFTGWYRRVPGKERELVARIYNGGNTNYADFAKGRFSISRDNAKKMVTLRMSNLRPEDTALYYCLFSGTINTGREYRSGDYWGQGTLVTVSS
notes: also called F0103464B09(L11V, K83R, G88A, V89L)
Turning to B12, the results for the EC50 in the test with muNav1.7α, in the test with rhNav1.7α + β1-β2-β3 and with huNav1.7α + β1-β2-β3 were 6.3 nM, 22 nM and 5.1 nM, respectively. Moreover, in the test with huNav1.7α + β1-β2-β3, the Bmax was found to be 96%.

B13: F010301936 (VHH)
VHH: EVQLVESGGGVVQPGGSLRLSCATTSRAFIRDVFTGWYRRVPGKERELVARIYNGGNTNYADFAKGRFSISRDNAKKMVTLQMSNLRPEDTGLYYCLFSGTINTGREYRSGDYWGQGTLVTVSS
notes: also called F0103464B09(L11V, R81Q, K83R, V89L)
As to B13, the figures for the EC50 with muNav1.7α, with rhNav1.7α + β1-β2-β3 and with huNav1.7α + β1-β2-β3 were 4.8 nM, 26 nM and 4.4 nM, respectively. Moreover, the Bmax with huNav1.7α + β1-β2-β3 is 95%.

B14: F010301932 (VHH)
VHH: EVQLVESGGGVVQPGGSLRLSCATTSRAFIRDVFTGWYRRVPGKERELVARIYNGGNTNYADFAKGRFSISRDNAKKMVTLRMSNLRPEDTGLYYCLFSGTINTGREYRSGDYWGQGTLVTVSS
notes: also called F0103464B09(L11V, K83R, V89L)
For the molecule B14, the EC50 with muNav1.7α amounted to 4.8 nM; with rhNav1.7α + β1-β2-β3 it was 17 nM; with huNav1.7α + β1-β2-β3, 4.3 nM. For the same molecule, the Bmax in the test with huNav1.7α + β1-β2-β3 is 94%.

B15: F010301935 (VHH)
VHH: EVQLVESGGGVVQPGGSLRLSCATTSRAFIRDVFTGWYRRVPGKERELVARIYNGGNTNYADFAKGRFSISRDNAKKMVYLRMSNLRPEDTGLYYCLFSGTINTGREYRSGDYWGQGTLVTVSS
notes: also called F0103464B09(L11V, T79Y, K83R, V89L)
Regarding B15, the results for the EC50 with muNav1.7α, with rhNav1.7α + β1-β2-β3 and with huNav1.7α + β1-β2-β3 were 5.5 nM, 27 nM and 3.8 nM, respectively. Moreover, the Bmax with huNav1.7α + β1-β2-β3 is 94%.

B16: F010301877 (VHH)
VHH: EVQLVESGGGVVQPGGSLRLSCATTSRAFIRDVFTGWYRRVPGKERELVARIYNGGNTNYADFAKGRFTISRDNAKNMVYLQMNSLRPEDTALYYCLFSGTINTGREYRSGDYWGQGTLVTVSS
notes: also called F0103464B09(L11V, S68T, K76N, T79Y, R81Q, S82aN, N82bS, K83R, G88A, V89L)
Turning to B16, the EC50 in the test with muNav1.7α is 39 nM; in the test with rhNav1.7α + β1-β2-β3, 96 nM; with huNav1.7α + β1-β2-β3 it was 13 nM. The Bmax in the test with huNav1.7α + β1-β2-β3 amounted to 100%.

Source of the values: US20240002497A1 (Merck Sharp & Dohme, published 2024).
